Measurements: article PMC7555893, “Structural role of essential light chains in the apicomplexan glideosome” (Communications Biology, 2020)

Experiments:
[1] = molecular target: TgELC2 S102E (phosphomimetic) (T. gondii); test: ITC; 200 uM peptide (syringe) injected 19 x 2 uL into 20 uM protein (cell); 20 mM HEPES pH 7.5, 150 mM NaCl, 0.5 mM TCEP with 5 mM CaCl2; 25 °C; one-site model
TgELC2 E10A (T. gondii) = test: as above
[2] = molecular target: T. gondii essential light chain 1 (TgELC1) (T. gondii); test: as above
[3] = molecular target: TgELC2 E10A+H110A (T. gondii); test: as above
TgELC2 S101A (T. gondii) = test: as above
TgELC2 F79A (T. gondii) = test: as above
[4] = molecular target: T. gondii essential light chain 2 (TgELC2) (T. gondii); test: as above
TgELC2 S102A (T. gondii) = test: as above
[5] = molecular target: T. gondii essential light chain 1 (TgELC1) (T. gondii); test: ITC; 200 uM peptide (syringe) injected 19 x 2 uL into 20 uM protein (cell); 20 mM HEPES pH 7.5, 150 mM NaCl, 0.5 mM TCEP with 5 mM EDTA; 25 °C; one-site model
[6] = molecular target: T. gondii essential light chain 2 (TgELC2) (T. gondii); test: as above
[7] = molecular target: Pre-complex of TgELC2 with TgMyoA-C (T. gondii) (UniProt O00934); test: ITC; 200 uM protein (syringe) injected 19 x 2 uL into 20 uM pre-formed complex of light chain and MyoA peptide (cell, 1:1.1); 20 mM HEPES pH 7.5, 150 mM NaCl, 0.5 mM TCEP with 1 mM CaCl2; 25 °C; one-site model
[8] = molecular target: P. falciparum myosin A tail-interacting protein, short construct (MTIP-S) (P. falciparum 3D7) (UniProt Q8I4W8); test: ITC; MTIP in the cell, PfMyoA peptide in the syringe; one-site model; the conditions of this titration are not told
[9] = molecular target: Pre-complex of TgELC1 with TgMyoA-C (T. gondii) (UniProt O00934); test: ITC; 200 uM protein (syringe) injected 19 x 2 uL into 20 uM pre-formed complex of light chain and MyoA peptide (cell, 1:1.1); 20 mM HEPES pH 7.5, 150 mM NaCl, 0.5 mM TCEP with 1 mM CaCl2; 25 °C; one-site model
[10] = molecular target: Pre-complex of TgELC2 R17A with TgMyoA-C (T. gondii) (UniProt O00934); test: as above
[11] = molecular target: T1, Pre-complex of MTIP-S with PfMyoA-C (P. falciparum 3D7 | P. falciparum, UniProt Q8I4W8;Q8IDR3); test: as above; conditions: both partners purified
T1 construct: also called MTIP pre-complex with MyoA-C; MTIP/PfMyoA-C complex; source: formed from purified MTIP-S (E. coli) and the MyoA peptide in 1:1.1 molar ratio, 1 h at 4 °C
T1 sequence 1: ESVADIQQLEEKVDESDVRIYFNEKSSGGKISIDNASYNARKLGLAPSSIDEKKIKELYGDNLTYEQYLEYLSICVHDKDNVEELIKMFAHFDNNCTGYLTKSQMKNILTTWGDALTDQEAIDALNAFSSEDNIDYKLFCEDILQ
T1 sequence 2: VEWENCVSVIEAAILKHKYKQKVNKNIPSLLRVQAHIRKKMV

MTIP residues 77-204 = molecular target: T2, MTIP residues 77-204 (P. falciparum 3D7, UniProt Q8I4W8 77-204); test: crystal structure; conditions: both partners purified
T2 construct: source: recombinantly expressed as a dimeric complex with PfMyoA-C, purified with PfELC (NiNTA IMAC, TEV, SEC)
T2 sequence: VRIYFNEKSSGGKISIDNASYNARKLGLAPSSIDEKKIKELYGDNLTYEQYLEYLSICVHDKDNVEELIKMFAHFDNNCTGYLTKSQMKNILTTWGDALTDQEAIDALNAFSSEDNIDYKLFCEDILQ

**Q.** “TgMyoA-C^ELC peptide (from UniProt O00934 777-798)” was tested. Which Kd [1] did it give?
**A.** 140 nM

**Q.** What about the dH [1] of the same molecule?
**A.** -18 kcal/mol

**Q.** What about the stoichiometry N [1] of the same molecule?
**A.** 0.77

**Q.** And the Kd (TgELC2 E10A (T. gondii))?
**A.** 190 nM

**Q.** And the dH (TgELC2 E10A (T. gondii))?
**A.** -17 kcal/mol

**Q.** What about the stoichiometry N (TgELC2 E10A (T. gondii)) of the same molecule?
**A.** 0.79

**Q.** What about the Kd [2] of the same molecule?
**A.** 36 nM

**Q.** And the dH [2]?
**A.** -13 kcal/mol

**Q.** What about the stoichiometry N [2] of the same molecule?
**A.** 1.05

**Q.** And the Kd [3]?
**A.** 1100 nM

**Q.** And the dH [3]?
**A.** -21 kcal/mol

**Q.** And the stoichiometry N [3]?
**A.** 0.75

**Q.** And the Kd (TgELC2 S101A (T. gondii))?
**A.** 280 nM

**Q.** And the dH (TgELC2 S101A (T. gondii))?
**A.** -18 kcal/mol

**Q.** And the stoichiometry N (TgELC2 S101A (T. gondii))?
**A.** 0.88

**Q.** And the Kd (TgELC2 F79A (T. gondii))?
**A.** 280 nM

**Q.** What about the dH (TgELC2 F79A (T. gondii)) of the same molecule?
**A.** -18 kcal/mol

**Q.** And the stoichiometry N (TgELC2 F79A (T. gondii))?
**A.** 0.84

**Q.** What about the Kd [4] of the same molecule?
**A.** 39 nM

**Q.** What about the dH [4] of the same molecule?
**A.** -15 kcal/mol

**Q.** What about the stoichiometry N [4] of the same molecule?
**A.** 0.85

**Q.** What about the Kd (TgELC2 S102A (T. gondii)) of the same molecule?
**A.** 76 nM

**Q.** And the dH (TgELC2 S102A (T. gondii))?
**A.** -16 kcal/mol

**Q.** What about the stoichiometry N (TgELC2 S102A (T. gondii)) of the same molecule?
**A.** 0.79

**Q.** And the Kd [5]?
**A.** 57 nM

**Q.** And the dH [5]?
**A.** -13 kcal/mol

**Q.** And the stoichiometry N [5]?
**A.** 0.81

**Q.** What about the Kd [6] of the same molecule?
**A.** 82 nM

**Q.** What about the dH [6] of the same molecule?
**A.** -18 kcal/mol

**Q.** What about the stoichiometry N [6] of the same molecule?
**A.** 0.77

**Q.** How did the Kd [7] turn out when MLC1-S Q169A (domain or fragment) was run?
**A.** 2.3 nM

**Q.** And the dH [7]?
**A.** -48.8 kcal/mol

**Q.** What about the stoichiometry N [7] of the same molecule?
**A.** 0.89

**Q.** With PfMyoA-C^ELC peptide as the molecule, how does the Kd [8] read?
**A.** 303 nM

**Q.** What about the dH [8] of the same molecule?
**A.** -14.4 kcal/mol

**Q.** What about the stoichiometry N [8] of the same molecule?
**A.** 0.74

**Q.** “T. gondii myosin light chain 1, short construct (MLC1-S) (domain or fragment)” was tested. Which Kd [9] did it give?
**A.** 4.7 nM

**Q.** What about the dH [9] of the same molecule?
**A.** -39.1 kcal/mol

**Q.** And the Kd [10]?
**A.** 4.6 nM

**Q.** What about the dH [10] of the same molecule?
**A.** -49.7 kcal/mol

**Q.** And the Kd [7]?
**A.** 0.6 nM

**Q.** And the dH [7]?
**A.** -47.6 kcal/mol

**Q.** What about the stoichiometry N [7] of the same molecule?
**A.** 0.81

**Q.** Which results are given for MLC1-S K168A (domain or fragment)?
**A.** Kd [7]: 1.2 nM; dH [7]: -47.7 kcal/mol; stoichiometry N [7]: 0.79

B1: P. falciparum essential light chain (PfELC) (natural protein)
chain: MASDMEEKFREAFILFSSCSDHIEMYKFFELMNSFGIILTNDEKAALPNDINMDYWLNFAKKHYNYEQPFKHINNVNEQNTNVQIKIDNFLGIMKALDTRLTESDLNILLQITNPENKSTLNLKTVSQKLTESI
notes: also called full-length PfELC; source: E. coli BL21-CodonPlus(DE3)-RIL, purified (Ni-IMAC, TEV, SEC)
**Q.** With B1 as the molecule, how does the Kd [11] read?
**A.** 109 ± 6.2 nM

**Q.** What about the dH [11] of the same molecule?
**A.** -13.4 ± 0.1 kcal/mol

**Q.** What about the “stoichiometry N” value [11] of the same molecule?
**A.** 0.86 ± 0.01

B2: PfELC S127D (phosphomimetic) (natural protein)
chain: MASDMEEKFREAFILFSSCSDHIEMYKFFELMNSFGIILTNDEKAALPNDINMDYWLNFAKKHYNYEQPFKHINNVNEQNTNVQIKIDNFLGIMKALDTRLTESDLNILLQITNPENKSTLNLKTVDQKLTESI
notes: source: E. coli, purified (expressed and purified under identical conditions as the wild type)
**Q.** How did the Kd [11] turn out when B2 was run?
**A.** 260 ± 26 nM

**Q.** What about the dH [11] of the same molecule?
**A.** -12.6 ± 0.2 kcal/mol

**Q.** And the “stoichiometry N” value [11]?
**A.** 0.81 ± 0.01

**Q.** Does VEWENCVSVIEAAILKHKYKQKVNKNIPSLLRVQAHIRKKMV (domain or fragment) [PfMyoA-C (775-816), recombinant, expressed with MTIP 77-204] bind (MTIP residues 77-204)?
**A.** binds
